Test results from paper PMC11063955, “A multiplexed time-resolved fluorescence resonance energy transfer ultrahigh-throughput screening assay for targeting the SMAD4–SMAD3–DNA complex” (Journal of Molecular Cell Biology, 2023).
Residue numbers refer to the chain shown, from its start.

Key:
Settings in all cases: remark: other sources report otherwise
[1] = biological target: T1, His-tagged SMAD4 WT (Mothers against decapentaplegic homolog 4), Q13485; assay: AlphaScreen or HTRF; multiplexed TR-FRET, PPI read-out (Tb-D2), lysate of HEK293T cells co-expressing His-SMAD4 and Flag-SMAD3 with point-mutated 5'-FAM-SBE4 Mut dsDNA in place of the WT dsDNA
T1 chain: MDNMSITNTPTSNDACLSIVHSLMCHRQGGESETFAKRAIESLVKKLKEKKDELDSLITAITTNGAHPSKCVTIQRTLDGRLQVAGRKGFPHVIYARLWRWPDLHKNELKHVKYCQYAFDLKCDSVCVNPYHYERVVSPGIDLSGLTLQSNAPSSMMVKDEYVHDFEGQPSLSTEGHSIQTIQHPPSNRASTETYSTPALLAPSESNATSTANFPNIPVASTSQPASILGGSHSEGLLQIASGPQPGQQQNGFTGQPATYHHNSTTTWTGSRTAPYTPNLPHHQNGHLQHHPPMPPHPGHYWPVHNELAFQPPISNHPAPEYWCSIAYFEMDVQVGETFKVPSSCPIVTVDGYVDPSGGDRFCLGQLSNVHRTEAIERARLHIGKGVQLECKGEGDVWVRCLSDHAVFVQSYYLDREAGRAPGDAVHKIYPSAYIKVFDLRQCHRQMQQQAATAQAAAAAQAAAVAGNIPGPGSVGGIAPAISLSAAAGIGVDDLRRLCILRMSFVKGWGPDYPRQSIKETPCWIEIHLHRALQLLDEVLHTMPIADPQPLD

[2] = biological target: T2, His-tagged SMAD4 R361C, Q13485; assay: AlphaScreen or HTRF; multiplexed TR-FRET, PPI read-out (Tb-D2), lysate of HEK293T cells co-expressing His-SMAD4 and Flag-SMAD3 (WT or mutated) with 5'-FAM-SBE4 WT dsDNA; anti-FLAG M2-Tb cryptate and anti-6xHis-D2 antibodies; FRET buffer 20 mM Tris-HCl pH 7.0, 50 mM NaCl, 0.01% NP-40; 4°C for 30 min
T2 chain: T1 chain with R361C

[3] = biological target: T3, His-tagged SMAD4 R361H, Q13485; assay: as above
T3 chain: T1 chain with R361H

B1: Flag-tagged SMAD3 WT, P84022 1-425 (natural protein)
chain: MSSILPFTPPIVKRLLGWKKGEQNGQEEKWCEKAVKSLVKKLKKTGQLDELEKAITTQNVNTKCITIPRSLDGRLQVSHRKGLPHVIYCRLWRWPDLHSHHELRAMELCEFAFNMKKDEVCVNPYHYQRVETPVLPPVLVPRHTEIPAEFPPLDDYSHSIPENTNFPAGIEPQSNIPETPPPGYLSEDGETSDHQMNHSMDAGSPNLSPNPMSPAHNNLDLQPVTYCEPAFWCSISYYELNQRVGETFHASQPSMTVDGFTDPSNSERFCLGLLSNVNRNAAVELTRRHIGRGVRLYYIGGEVFAECLSDSAIFVQSPNCNQRYGWHPATVCKIPPGCNLKIFNNQEFAALLAQSVNQGFEAVYQLTRMCTIRMSFVKGWGAEYRRQTVTSTPCWIELHLNGPLQWLDKVLTQMGSPSIRCSSVS
B1 was tested. Which decrease of the PPI signal with 5'-FAM-SBE4 Mut dsDNA against WT dsDNA [1] did it give?
Its decrease of the PPI signal with 5'-FAM-SBE4 Mut dsDNA against WT dsDNA is 15%.

What about the reduction of the PPI signal against SMAD4 WT [2] of the same binder?
The reduction of the PPI signal against SMAD4 WT was 75%.

What about the reduction of the PPI signal against SMAD4 WT [3] of the same binder?
Its reduction of the PPI signal against SMAD4 WT is 75%.
